Reference: publication PMC11347170, “Staphylococcal exoribonuclease YhaM destabilizes ribosomes by targeting the mRNA of a hibernation factor”

Target: YhaM D193A (Staphylococcus aureus JE2 (USA300), UniProt A0A0H2XHZ3 1-313, D193A)
Assay: EMSA; 1 mM Mn2+; 15 nM RNA, 0-30 uM YhaM; partial RNA degradation at high protein; EMSA: 50 mM Na-Tricine pH 8.0, 100 mM KCl, 1 mM MnSO4, 37 C 20 min, 20% TBE native gel
Conditions: protein: recombinant; tags: N-terminal His6 (pMCSG7); label: 5'-6-FAM; single strand

AGGAAAAAACAUUUUAUAAAGGAGA (ssRNA) [RNA_a]
binding result: binds
